Values quoted from earlier work in article PMC2848394.

Biological target: BMP-2 (Homo sapiens) (UniProt P12643)
Assay: Biacore SPR

BMP-2 (Homo sapiens), sequence (P12643 283-396): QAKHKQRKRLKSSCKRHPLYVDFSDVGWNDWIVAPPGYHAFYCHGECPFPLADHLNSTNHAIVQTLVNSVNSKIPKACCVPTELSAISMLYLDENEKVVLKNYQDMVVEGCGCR
Chordin, sequence (Q9H2X0 27-955): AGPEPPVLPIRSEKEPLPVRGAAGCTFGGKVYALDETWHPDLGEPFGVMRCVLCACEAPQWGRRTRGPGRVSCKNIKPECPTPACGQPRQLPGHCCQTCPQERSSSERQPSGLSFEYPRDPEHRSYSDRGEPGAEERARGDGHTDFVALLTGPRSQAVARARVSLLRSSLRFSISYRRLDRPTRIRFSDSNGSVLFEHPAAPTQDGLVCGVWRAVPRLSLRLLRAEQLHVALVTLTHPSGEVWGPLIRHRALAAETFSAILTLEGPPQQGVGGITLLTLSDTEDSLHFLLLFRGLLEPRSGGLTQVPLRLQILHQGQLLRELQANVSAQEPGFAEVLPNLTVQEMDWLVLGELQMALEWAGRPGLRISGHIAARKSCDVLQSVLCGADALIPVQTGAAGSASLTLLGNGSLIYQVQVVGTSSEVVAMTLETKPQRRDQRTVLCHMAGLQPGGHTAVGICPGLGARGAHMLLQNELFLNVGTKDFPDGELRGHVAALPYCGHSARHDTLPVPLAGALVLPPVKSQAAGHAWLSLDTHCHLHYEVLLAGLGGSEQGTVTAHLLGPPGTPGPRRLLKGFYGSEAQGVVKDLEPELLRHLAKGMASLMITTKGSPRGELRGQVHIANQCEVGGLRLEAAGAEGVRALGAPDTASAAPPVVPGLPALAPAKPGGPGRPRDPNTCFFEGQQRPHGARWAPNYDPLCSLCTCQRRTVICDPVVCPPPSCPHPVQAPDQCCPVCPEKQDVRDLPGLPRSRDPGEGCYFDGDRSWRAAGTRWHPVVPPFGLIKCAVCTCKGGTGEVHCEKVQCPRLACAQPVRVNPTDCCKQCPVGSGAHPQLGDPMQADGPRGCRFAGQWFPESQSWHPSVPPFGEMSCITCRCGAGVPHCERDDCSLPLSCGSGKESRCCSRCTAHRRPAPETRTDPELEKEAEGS

- Kd: 12 nM
Substance: Chordin (from UniProt Q9H2X0)
